Numbering of substitutions follows the chain as printed. Ends that are not written are not given here.
T1: BSA-Compound 1 (human CCR4 extracellular region peptide Compound 1 conjugated with BSA) (human, also: conjugated to BSA through SMCC, site not given here)
T1 construct: the claims speak of positions 13 to 29; ELISA antigen; also called CCR4 partial peptide
T1 peptide: DESIYSNYYLYESIPKPC

T2: human CC chemokine receptor 4 (CCR4) on CCR4/EL-4 cells (human, UniProt P51679 1-360)
T2 construct: also called hCCR4; human CCR4-high-expressing cell
T2 sequence: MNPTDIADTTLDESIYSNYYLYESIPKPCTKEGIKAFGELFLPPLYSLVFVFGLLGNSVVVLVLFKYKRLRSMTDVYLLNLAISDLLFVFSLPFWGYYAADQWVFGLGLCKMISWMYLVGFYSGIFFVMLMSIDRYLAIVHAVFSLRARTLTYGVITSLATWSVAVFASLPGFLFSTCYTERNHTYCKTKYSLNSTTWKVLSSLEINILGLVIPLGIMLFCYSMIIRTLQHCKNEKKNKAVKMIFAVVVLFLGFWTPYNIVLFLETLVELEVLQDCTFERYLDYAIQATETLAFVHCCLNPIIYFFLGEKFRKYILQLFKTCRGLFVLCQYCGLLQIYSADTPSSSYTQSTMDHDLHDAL

T3: biotinylated Compound 1 (biotinylated CCR4 partial peptide) (human, also: biotinylated, site not given here)
T3 construct: Same peptide as in BSA-Compound 1
T3 peptide: DESIYSNYYLYESIPKPC

B1: anti-CCR4 CDR-grafted antibody Ga10LV1 (antibody, human IgG1, V domains shown)
VH: EVQLVESGGDLVQPGRSLRLSCAASGFIFSNYGMSWVRQAPGKGLEWVATISSASTYSYYPDSVKGRFTISRDNAKNSLYLQMNSLRVEDTALYYCARHSDGNFAFGYWGQGTLVTVSS
VL: DVVMTQSPLSLPVTPGEPASISCRSSRNIVHINGDTYLEWYLQKPGQSPQLLIYKVSNRFSGVPDRFSGSGSGTDFTLKISRVEAEDVGVYYCFQGSLLPWTFGQGTKVEIK
notes: Tested as COS-7 supernatant and as purified antibody from YB2/0; also called pKM2160Ga10LV1
B2: anti-CCR4 CDR-grafted antibody Ga11LV3 (antibody, human IgG1, V domains shown)
VH: B1 VH with A97G
VL: B1 VL with V3L
notes: Tested as COS-7 supernatant and as purified antibody from YB2/0; also called pKANTEX2160Ga11LV3; antibody of producing cell KM8760 (FERM BP-8130)
B3: anti-CCR4 CDR-grafted antibody Ga10LV3 (antibody, human IgG1, V domains shown)
VH: B1 VH
VL: B1 VL with V3L
notes: Tested as COS-7 supernatant and as purified antibody from YB2/0; also called pKM2160Ga10LV3
B4: anti-CCR4 CDR-grafted antibody Ga12LV1 (antibody, human IgG1, V domains shown)
VH: B1 VH with G42D, G44R
VL: B1 VL
notes: Tested as COS-7 supernatant and as purified antibody from YB2/0; also called pKM2160Ga12LV1
B5: anti-CCR4 CDR-grafted antibody Ga11LV1 (antibody, human IgG1, V domains shown)
VH: B1 VH with A97G
VL: B1 VL
notes: Tested as COS-7 supernatant and as purified antibody from YB2/0; also called pKM2160Ga11 LV1
B6: anti-CCR4 CDR-grafted antibody Ga12LV3 (antibody, human IgG1, V domains shown)
VH: B1 VH with G42D, G44R
VL: B1 VL with V3L
notes: Tested as COS-7 supernatant and as purified antibody from YB2/0; also called pKANTEX2160Ga12LV3; antibody of producing cell KM8759 (FERM BP-8129)
B7: anti-CCR4 CDR-grafted antibody HV1LV1 (antibody, human IgG1, V domains shown)
VH: B1 VH with D10G, R16G, A49S, A75S, S78T, V88A, L93V
VL: B1 VL
notes: Tested as COS-7 culture supernatant only; also called pKM2160HV1LV1
B8: anti-CCR4 CDR-grafted antibody HV2LV0 (antibody, human IgG1, V domains shown)
VH: B1 VH with D10G, R16G, I28T, A49S, A75S, S78T, V88A, L93V, A97G
VL: B1 VL with V2I
notes: Tested as COS-7 culture supernatant only; also called pKM2160HV2LV0
B9: anti-CCR4 CDR-grafted antibody HV0LV3 (antibody, human IgG1, V domains shown)
VH: B1 VH with D10G, R16G, I28T, A49S, A75S, S78T, V88A, L93V
VL: B1 VL with V3L
notes: Tested as COS-7 culture supernatant only; also called pKM2160HV0LV3
B10: anti-CCR4 CDR-grafted antibody HV3LV0 (antibody, human IgG1, V domains shown)
VH: B1 VH with D10G, R16G, A49S, A75S, S78T, V88A, L93V, A97G
VL: B1 VL with V2I
notes: Tested as COS-7 culture supernatant only; also called pKM2160HV3LV0
B11: anti-CCR4 CDR-grafted antibody HV1LV0 (antibody, human IgG1, V domains shown)
VH: B1 VH with D10G, R16G, A49S, A75S, S78T, V88A, L93V
VL: B1 VL with V2I
notes: Tested as COS-7 culture supernatant only; also called pKM2160HV1LV0
B12: anti-CCR4 CDR-grafted antibody HV3LV3 (antibody, human IgG1, V domains shown)
VH: B1 VH with D10G, R16G, A49S, A75S, S78T, V88A, L93V, A97G
VL: B1 VL with V3L
notes: Tested as COS-7 culture supernatant only; also called pKM2160HV3LV 3
B13: anti-CCR4 CDR-grafted antibody Ga13LV3 (antibody, human IgG1, V domains shown)
VH: B1 VH with G42D, G44R, A97G
VL: B1 VL with V3L
notes: Tested as COS-7 supernatant and as purified antibody from YB2/0; also called pKM2160Ga13LV3
B14: anti-CCR4 CDR-grafted antibody HV0LV1 (antibody, human IgG1, V domains shown)
VH: B1 VH with D10G, R16G, I28T, A49S, A75S, S78T, V88A, L93V
VL: B1 VL
notes: Tested as COS-7 culture supernatant only; also called pKM2160HV0LV1
B15: anti-CCR4 CDR-grafted antibody Ga10LV0 (antibody, human IgG1, V domains shown)
VH: B1 VH
VL: B1 VL with V2I
notes: CDR alone grafted; Tested as COS-7 supernatant and as purified antibody from YB2/0; also called pKANTEX2160Ga10LV0; pKM2160Ga10LV0
B16: anti-CCR4 CDR-grafted antibody Ga10LV2 (antibody, human IgG1, V domains shown)
VH: B1 VH
VL: B1 VL with V2I, V3L
notes: Tested as COS-7 culture supernatant only; also called pKM2160Ga10LV2
B17: anti-CCR4 CDR-grafted antibody HV2LV3 (antibody, human IgG1, V domains shown)
VH: B1 VH with D10G, R16G, I28T, A49S, A75S, S78T, V88A, L93V, A97G
VL: B1 VL with V3L
notes: Tested as COS-7 culture supernatant only; also called pKM2160HV2LV3
B18: anti-CCR4 CDR-grafted antibody HV1LV3 (antibody, human IgG1, V domains shown)
VH: B1 VH with D10G, R16G, A49S, A75S, S78T, V88A, L93V
VL: B1 VL with V3L
notes: Tested as COS-7 culture supernatant only; also called pKM2160HV1LV3
B19: anti-CCR4 CDR-grafted antibody HV0LV0 (antibody, human IgG1, V domains shown)
VH: B1 VH with D10G, R16G, I28T, A49S, A75S, S78T, V88A, L93V
VL: B1 VL with V2I
notes: Tested as COS-7 culture supernatant only; also called pKM2160HV0LV0
B20: anti-CCR4 CDR-grafted antibody HV0LV2 (antibody, human IgG1, V domains shown)
VH: B1 VH with D10G, R16G, I28T, A49S, A75S, S78T, V88A, L93V
VL: B1 VL with V2I, V3L
notes: Tested as COS-7 culture supernatant only; also called pKM2160HV0LV2
B21: anti-CCR4 CDR-grafted antibody Ga13LV1 (antibody, human IgG1, V domains shown)
VH: B1 VH with G42D, G44R, A97G
VL: B1 VL
notes: Tested as COS-7 supernatant and as purified antibody from YB2/0; also called pKM2160Ga13LV 1
B22: anti-CCR4 CDR-grafted antibody HV1LV2 (antibody, human IgG1, V domains shown)
VH: B1 VH with D10G, R16G, A49S, A75S, S78T, V88A, L93V
VL: B1 VL with V2I, V3L
notes: Tested as COS-7 culture supernatant only; also called pKM2160HV1LV2

Molecular target: T1, BSA-Compound 1 (human CCR4 …)
Assay: ELISA on BSA-Compound 1, purified antibody

Binding result, binds:
B1
B2
B3
B4
B5
B6

Molecular target: T1, BSA-Compound 1 (human CCR4 …)
Assay: ELISA on BSA-Compound 1, COS-7 culture supernatant
Method: Into a 96 well ELISA plate (manufactured by Greiner), 0.05 μg/ml of the prepared conjugate was dispensed in at 50 μl/well and allowed to stand at 4° C. overnight for adsorption. After washing with PBS, PBS containing 1% BSA (hereinafter referred to as “1% BSA-PBS”) was added thereto at 100 μl/well and allowed to react at room temperature for 1 hour to block the remaining active groups. After washing each well with PBS containing 0.05% Tween 20 (hereinafter referred to as “Tween-PBS”), a culture supernatant of the transformant was added at 50 μl/well and allowed to react at room temperature for 1 hour. After the reaction and subsequent washing of each well with Tween-PBS, a peroxidase-labeled goat anti-human IgG(γ) antibody solution (manufactured by American Qualex) diluted 6,000 folds with 1% BSA-PBS was added as a secondary antibody solution in 50 μl/well portions and allowed to react at room temperature for 1 hour After the reaction and subsequent washing with Tween-PBS, an ABTS substrate solution (a solution prepared by dissolving 0.55 g of […] ammonium in 1 liter of 0.1 M citrate buffer (pH 4.2) and adding 1 μl/ml hydrogen peroxide just before use) was added at 50 μl/well to develop color, and the reaction was stopped 20 minutes thereafter by adding 5% SDS solution at 50 μl/well. Thereafter, absorbance at 415 nm was measured.

Binding result, binds:
B7
B8
B9
B10
B11
B12
B13
B14
B15
B16
B17
B18
B19
B20
B21
B22

Each binder was assayed against T2, human CC chemokine receptor 4 (CCR4) on … (assay: flow cytometry on CCR4/EL-4 cells, antibody at 10 µg/ml).
Method: Into a 96 well plate, 2×10⁵ or more of CCR4/EL-4 cells, CCR4-high-expressing cells obtained in Reference Example 3, were dispensed. An antibody solution was prepared by diluting each of the purified antibodies and a human immunoglobulin (manufactured by Welfide) for preventing nonspecific staining to give concentrations of 10 μg/ml and 3.75 mg/ml, respectively, with a buffer for FACS, and the antibody solution was added at 100 μl/well and allowed to react for 30 minutes in ice. As a negative control, 10 μg/ml of an anti-human IL-5 receptor a chain antibody (WO 97/10354) was used. After washing twice with 200 μl/well of the buffer for FACS, a PE-labeled anti-human IgG antibody (manufactured by Coulter) diluted 100 times was added at 50 μl/well. After the reaction in ice under shading and subsequent washing three times with 200 μl/well of the buffer for FACS, the reaction product was suspended in 500 μl of the buffer for FACS and the fluorescence intensity was measured using a flow cytometer.

Binding result, binds:
B1
B2
B3
B13
B15
B4
B5
B6
B21

Molecular target: T3, biotinylated Compound 1 (biotinylated …)
Assay: BIAcore 2000, biotinylated Compound 1 on sensor tip SA, antibody at 4 µg/ml
Method: In order to measure the binding activity in more detail, the binding activity of various purified antibodies was measured using BIAcore 2000 (manufactured by BIACORE) as follows. In this case, HBS-EP (manufactured by BIACORE) was used as the buffer for diluting samples and for the measurement. First, 5 μl of 0.05 μg/ml solution of Compound 1 as a biotinylated CCR4 partial peptide was added to a sensor tip SA (manufactured by BIACORE) at a flow rate of 5 μl/minute and immobilized on the sensor tip.
To the prepared biotinylated compound 1 -immobilized sensor tip, 20 μl of 4 μg/ml solution of each of the purified antibodies was added at a flow rate of 5 μl/minute, and after completion of the addition, the dissociation reaction was monitored for 4 minutes and then the sensor tip surface was regenerated by adding 5 μl of 10 mM HCl twice. In this way, a binding reaction curve (sensorgram) for Compound 1 was obtained.

Binding result, binds:
B1
B2
B3
B13
B15
B4
B5
B6
B21

From patent US20030175273A1 (Kyowa Kirin, published 2003)
